Experimental data from article PMC2621343, “Ca^2+ Extrusion by NCX Is Compromised in Olfactory Sensory Neurons of OMP^−/− Mice” (PLoS ONE, 2009).

T1: recombinant rat OMP (olfactory marker protein) (rat, UniProt P08523 1-163)
T1 construct: olfactory marker protein, rat, recombinant
T1 sequence (looked up): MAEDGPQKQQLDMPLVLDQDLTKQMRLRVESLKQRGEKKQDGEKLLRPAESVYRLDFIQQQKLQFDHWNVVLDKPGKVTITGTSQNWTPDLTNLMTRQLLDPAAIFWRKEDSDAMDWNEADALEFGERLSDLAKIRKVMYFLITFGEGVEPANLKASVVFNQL


Legend:
Settings in all cases: both partners purified
Bovine calmodulin [1] = target: T2, Bovine calmodulin (bovine, UniProt P62157 1-149); experiment: SPR; XIP peptide immobilised on CM5 chip (about 700 RU, carbodiimide chemistry); CaM 10, 25, 50, 100, 250 nM flowed over; Biacore 3000; running buffer NaCl 150 mM, HEPES 10 mM, CaCl2 0.1 mM, pH 7.4; 5 µl/min for 2 minutes; 1:1 Langmuir binding model
T2 construct: calmodulin, bovine, purchased from Sigma; the methods say bovine calmodulin purchased from Sigma; also called CaM; recombinant calmodulin (CaM); source: bought: Sigma

[2] = target: T1, recombinant rat OMP (olfactory marker …); experiment: SPR; data not shown; peptide immobilised on CM5 chip; OMP flowed over (0-500 nM by the methods), running buffer in the absence or presence of 0.1 mM Ca2+; interaction Ca2+-independent
Bovine calmodulin [3] = target: T2, Bovine calmodulin; experiment: SPR; Bex1 (50-75) peptide immobilised on CM5 chip; CaM 31.25, 62.5, 125, 250, 500 nM flowed over; running buffer with 0.1 mM Ca2+; steady-state analysis of equilibrium response, nonlinear 1:1 binding isotherm

Binder | Kd (Bovine calmodulin [1]) [nM] | Kd [2] [nM] | Kd (Bovine calmodulin [3]) [nM]
RRLLFYKYVYKRYRAGKQRGM (Immobilised on a CM5 chip by carbodiimide chemistry; also called XIP regulatory-peptide of NCX; source: synthetic peptide, HPLC purified) [XIP peptide (NCX1 251-271)] | 20 ± 6 | 700 | 
RGGRRRFRVRQPIAHYRWDLMQRVGE (Immobilised on a CM5 chip by carbodiimide chemistry; also called Bex1 peptide; Bex1 (50–75) peptide; source: synthetic peptide, HPLC purified) [CaM binding peptide of Bex1 (Bex1 50-75)] |  | 90000 ± 12000 | 280
